This experiment has as its target Death Receptor 5 (UniProt O14763). Briefly: cell-based or functional assay.

Where “and” joins values, the source holds several entries; their conditions need not be identical. Equal entries are not always repeated. Some results are limits rather than exact numbers.

In the case of “Tigatuzumab Multabody (from UniProt P02792 1-175; P02792 1-175)”, the Fold-change of killing IC50, MB vs parental IgG, mass basis, CAPAN-1 cells was more than 5000 fold; the Fold-change of killing IC50, MB vs parental IgG, mass basis, Colo 205 cells was more than 11800 fold; the Fold-change of killing IC50, MB vs parental IgG, mass basis, H2122 cells is 2940 fold; the Fold-change of killing IC50, MB vs parental IgG, mass basis, H2228 cells was more than 651 fold. Besides, the Fold-change of killing IC50, MB vs parental IgG, mass basis, HT29 cells was more than 1190 fold; the Fold-change of killing IC50, MB vs parental IgG, mass basis, HTC15 cells was more than 5000 fold; the Fold-change of killing IC50, MB vs parental IgG, mass basis, MDA-BD231 cells is more than 8400 fold; the Fold-change of killing IC50, MB vs parental IgG, mass basis, SW948 cells was more than 27000 fold. Moreover, the Fold-change of killing IC50, MB vs parental IgG, molar basis, CAPAN-1 cells is more than 59300 fold; the Fold-change of killing IC50, MB vs parental IgG, molar basis, Colo 205 cells was more than 181000 fold; the Fold-change of killing IC50, MB vs parental IgG, molar basis, H2122 cells is 45600 fold; the Fold-change of killing IC50, MB vs parental IgG, molar basis, H2228 cells was more than 10000 fold. Also, the Fold-change of killing IC50, MB vs parental IgG, molar basis, HT29 cells was more than 18300 fold; the Fold-change of killing IC50, MB vs parental IgG, molar basis, HTC15 cells is more than 77000 fold; the Fold-change of killing IC50, MB vs parental IgG, molar basis, MDA-BD231 cells was more than 129000 fold; the Fold-change of killing IC50, MB vs parental IgG, molar basis, SW948 cells was more than 416000 fold. The IC50 of cell killing (cell viability, CellTiter-Glo, 24 h), CAPAN-1 cells is 0.0026 µg/mL and 0.0011 nM; the IC50 of cell killing (cell viability, CellTiter-Glo, 24 h), Colo 205 cells was 0.00085 µg/mL and 0.00037 nM; the IC50 of cell killing (cell viability, CellTiter-Glo, 24 h), H2122 cells is 0.00014 µg/mL and 5.9e-05 nM; the IC50 of cell killing (cell viability, CellTiter-Glo, 24 h), H2228 cells was 0.015 µg/mL and 0.0067 nM. In addition, the IC50 of cell killing (cell viability, CellTiter-Glo, 24 h), HT29 cells is 0.0084 µg/mL and 0.0037 nM; the IC50 of cell killing (cell viability, CellTiter-Glo, 24 h), HTC15 cells was 0.002 µg/mL and 0.00087 nM; the IC50 of cell killing (cell viability, CellTiter-Glo, 24 h), MDA-BD231 cells is 0.00052 nM and 0.0012 µg/mL; the IC50 of cell killing (cell viability, CellTiter-Glo, 24 h), SW948 cells was 0.00037 µg/mL and 0.00016 nM.

“Conatumumab Multabody (from UniProt P02792 91-175)”: the IC50 of cell killing (cell viability, CellTiter-Glo, 24 h), CAPAN-1 cells is 0.002 µg/mL and 0.00087 nM; the IC50 of cell killing (cell viability, CellTiter-Glo, 24 h), Colo 205 cells worked out at 0.16 pM; the IC50 of cell killing (cell viability, CellTiter-Glo, 24 h), H2122 cells was 0.00015 µg/mL and 6.4e-05 nM; the IC50 of cell killing (cell viability, CellTiter-Glo, 24 h), H2228 cells was 0.031 µg/mL and 0.013 nM. For the same substance, the IC50 of cell killing (cell viability, CellTiter-Glo, 24 h), HT29 cells was 0.0024 µg/mL and 0.001 nM; the IC50 of cell killing (cell viability, CellTiter-Glo, 24 h), HTC15 cells is 0.00053 µg/mL and 0.00023 nM; the IC50 of cell killing (cell viability, CellTiter-Glo, 24 h), MDA-BD231 cells was 0.00071 µg/mL and 0.00031 nM; the IC50 of cell killing (cell viability, CellTiter-Glo, 24 h), SW948 cells is 0.16 pM.
